This note sets out measurements from patent US20050048050A1 (CITY OF HOPE, published 2005).

The target of this assay is T1, purified human insulin-like growth factor I receptor (IGF-IR) (human, UniProt P08069 31-1367, limits assumed).
T1 construct: The natural receptor is made of alpha and beta subunits from one precursor; also called IGF-R; human IGF-1 receptor
The assay can be described thus: SPR (BIAcore), IGF-IR immobilised on the chip, antibody as analyte. The method, then:
The affinity constants of 1H7 (10⁹ M⁻¹) and αIGF-IR scFv-Fc (10⁸ M⁻¹) for IGF-IR were determined using a BIAcore instrument (BIAcore Inc., Piscataway, N.J.). Analytes, at various concentrations, were passed over IGF-IR-immobilized chips (0.3 μg/chip) at a flow rate of 5 μl/min.
(SPR reads the build-up and loss of mass on a sensor chip optically.)

T1 sequence (P08069 31-1367 limits assumed, form in doubt): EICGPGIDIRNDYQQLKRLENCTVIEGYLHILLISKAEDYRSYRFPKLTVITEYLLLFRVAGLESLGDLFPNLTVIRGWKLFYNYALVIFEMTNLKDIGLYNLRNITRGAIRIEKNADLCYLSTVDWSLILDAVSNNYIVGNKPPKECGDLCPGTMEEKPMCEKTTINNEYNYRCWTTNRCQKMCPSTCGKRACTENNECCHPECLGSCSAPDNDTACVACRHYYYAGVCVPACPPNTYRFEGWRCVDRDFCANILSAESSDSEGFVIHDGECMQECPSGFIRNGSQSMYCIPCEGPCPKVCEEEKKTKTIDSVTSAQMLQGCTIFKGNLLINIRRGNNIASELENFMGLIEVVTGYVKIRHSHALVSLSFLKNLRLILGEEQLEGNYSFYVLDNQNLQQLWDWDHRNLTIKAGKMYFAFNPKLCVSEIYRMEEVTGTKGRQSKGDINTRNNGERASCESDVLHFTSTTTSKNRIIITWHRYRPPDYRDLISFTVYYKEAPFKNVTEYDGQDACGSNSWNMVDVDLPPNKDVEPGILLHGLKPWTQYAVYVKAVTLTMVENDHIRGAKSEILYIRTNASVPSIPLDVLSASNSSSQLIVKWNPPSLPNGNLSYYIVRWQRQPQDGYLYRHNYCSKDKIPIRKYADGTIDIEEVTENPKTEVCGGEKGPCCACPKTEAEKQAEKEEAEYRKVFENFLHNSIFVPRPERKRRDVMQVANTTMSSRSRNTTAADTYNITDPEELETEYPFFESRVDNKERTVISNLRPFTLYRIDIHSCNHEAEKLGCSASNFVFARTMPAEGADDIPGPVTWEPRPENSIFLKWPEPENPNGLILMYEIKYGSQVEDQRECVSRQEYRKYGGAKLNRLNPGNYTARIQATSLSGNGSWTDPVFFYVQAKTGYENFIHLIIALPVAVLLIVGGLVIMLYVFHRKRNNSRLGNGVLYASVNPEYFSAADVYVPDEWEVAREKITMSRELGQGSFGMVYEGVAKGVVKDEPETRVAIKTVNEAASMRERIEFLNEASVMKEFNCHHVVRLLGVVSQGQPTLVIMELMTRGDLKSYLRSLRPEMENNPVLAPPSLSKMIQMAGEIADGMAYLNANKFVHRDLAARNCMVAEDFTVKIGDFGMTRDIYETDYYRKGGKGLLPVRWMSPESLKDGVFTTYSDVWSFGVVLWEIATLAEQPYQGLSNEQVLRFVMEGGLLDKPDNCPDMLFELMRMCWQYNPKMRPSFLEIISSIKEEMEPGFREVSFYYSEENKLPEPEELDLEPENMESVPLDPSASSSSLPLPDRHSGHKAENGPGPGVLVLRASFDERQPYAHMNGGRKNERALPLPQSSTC

B1: αIGF-IR scFv-Fc (chimeric single-chain antibody against human insulin-like growth factor I receptor) (Fc fusion)
chain: DIVMTQSHKFMSTSVGDRVNITCKASQDVNTAVAWYQQKPGQSPKLLIYWASTRHTGVPDRFTGSGSGTDFTLTISSVQAEDLTLYYCHQHYTTPYTFGGGTNLEIKGGGGSGGGSGGGGSGGGSEVKVVESGGGLVKPGGSLKLSCAASGFTFSIYAMSWVRQTPEKKLEWVASISNGGTTYYPDSVKGRFTISRDNARNILYLQMNSLRSEDTAMYYCARTFYYSFPRAMDYWGQGTSVTVSS
notes: Divalent antibody with an expected Mr of 120 kDa, expressed in NS0 cells and purified on protein A. The signal peptide from the mT84.66 light chain is left out; not shown: human IgG1 Fc domain (cDNA clone from Dr. J. Schlom), SalI fragment inserted into the XhoI site of pcDNA/αIGF-IR scFv
With B1, the Ka was found to be 1e+08 M⁻¹.

B2: mouse monoclonal antibody 1H7 (antibody, V domains shown)
VH: EVKVVESGGGLVKPGGSLKLSCAASGFTFSIYAMSWVRQTPEKKLEWVASISNGGTTYYPDSVKGRFTISRDNARNILYLQMNSLRSEDTAMYYCARTFYYSFPRAMDYWGQGTSVTVSS
VL: DIVMTQSHKFMSTSVGDRVNITCKASQDVNTAVAWYQQKPGQSPKLLIYWASTRHTGVPDRFTGSGSGTDFTLTISSVQAEDLTLYYCHQHYTTPYTFGGGTNLEIK
notes: Whole murine monoclonal antibody; also called 1H7 mAb
In turn, B2 came in with a Ka of 1e+09 M⁻¹.
